This note sets out measurements from patent US20200392225A1 (Novartis, published 2020).

The target of assay [1] is T1, human NPR1-ANP complex (human, UniProt P01160 124-151, limits assumed).
T1 construct: Receptor antigen measured in the presence of ANP; also called hNPR1 + ANP; hNPR1-ANP-complex
T1 sequence: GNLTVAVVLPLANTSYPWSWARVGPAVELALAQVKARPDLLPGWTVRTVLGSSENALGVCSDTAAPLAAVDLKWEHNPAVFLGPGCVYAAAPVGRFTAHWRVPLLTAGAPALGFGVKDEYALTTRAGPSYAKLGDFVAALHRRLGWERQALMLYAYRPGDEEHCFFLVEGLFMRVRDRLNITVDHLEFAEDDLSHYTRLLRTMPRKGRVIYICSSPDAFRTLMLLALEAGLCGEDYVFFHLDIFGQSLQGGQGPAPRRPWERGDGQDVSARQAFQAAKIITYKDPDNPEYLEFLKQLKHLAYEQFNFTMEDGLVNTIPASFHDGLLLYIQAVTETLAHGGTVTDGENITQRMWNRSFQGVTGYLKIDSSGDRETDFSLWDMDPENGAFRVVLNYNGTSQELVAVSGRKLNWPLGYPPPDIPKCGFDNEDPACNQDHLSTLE
T1 sequence (peptide): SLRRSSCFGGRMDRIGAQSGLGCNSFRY
Put plainly: ELISA, IgG titrated on the antigen with 250 fold molar excess of ANP [cont.]. On the technique in general: ELISA stands for enzyme-linked immunosorbent assay.

The target in assay [2] is T2, human NPR1 expressed on CHO-K1 cells in the presence of ANP (human, UniProt P01160 124-151).
T2 construct: also called hNPR1 CHO K1 + 100 nM ANP
T2 sequence: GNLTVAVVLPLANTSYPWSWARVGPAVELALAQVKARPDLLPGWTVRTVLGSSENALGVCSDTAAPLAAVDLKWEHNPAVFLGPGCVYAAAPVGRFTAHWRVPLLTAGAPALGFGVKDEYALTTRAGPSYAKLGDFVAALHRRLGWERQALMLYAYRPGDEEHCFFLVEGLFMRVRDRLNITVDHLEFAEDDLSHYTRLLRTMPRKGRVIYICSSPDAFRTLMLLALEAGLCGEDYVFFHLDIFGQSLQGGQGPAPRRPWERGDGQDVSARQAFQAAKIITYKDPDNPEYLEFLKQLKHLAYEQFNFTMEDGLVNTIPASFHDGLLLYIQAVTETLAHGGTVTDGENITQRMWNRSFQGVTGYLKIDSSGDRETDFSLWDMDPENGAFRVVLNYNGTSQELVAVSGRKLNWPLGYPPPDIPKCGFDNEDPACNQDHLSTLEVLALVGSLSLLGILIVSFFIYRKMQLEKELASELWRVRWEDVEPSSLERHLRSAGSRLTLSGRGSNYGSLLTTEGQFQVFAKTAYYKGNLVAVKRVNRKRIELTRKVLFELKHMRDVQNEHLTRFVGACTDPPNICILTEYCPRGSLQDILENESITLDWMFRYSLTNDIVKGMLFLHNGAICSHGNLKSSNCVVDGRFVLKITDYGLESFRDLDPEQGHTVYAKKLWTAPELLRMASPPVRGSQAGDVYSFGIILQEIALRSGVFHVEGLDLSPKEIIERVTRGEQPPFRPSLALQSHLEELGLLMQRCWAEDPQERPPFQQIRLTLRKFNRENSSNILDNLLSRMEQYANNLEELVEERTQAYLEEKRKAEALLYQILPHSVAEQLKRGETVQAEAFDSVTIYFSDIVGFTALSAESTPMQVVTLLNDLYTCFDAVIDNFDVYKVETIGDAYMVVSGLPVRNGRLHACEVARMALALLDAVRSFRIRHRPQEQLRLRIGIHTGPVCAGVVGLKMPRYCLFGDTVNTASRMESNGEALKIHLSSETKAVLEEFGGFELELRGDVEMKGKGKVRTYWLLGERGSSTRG
T2 sequence (peptide): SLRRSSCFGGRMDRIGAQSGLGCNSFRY
Kind of assay: flow cytometry, 1 uM IgG, +100 nM ANP. For orientation: A flow cytometer gives signals particle by particle.

The target in assay [3] is T1, human NPR1-ANP complex. Put plainly: ELISA, 1 uM IgG, +100 nM ANP.
Assay [4] deals with T3, rat NPR1-ANP complex (rat).
T3 construct: Rat receptor antigen measured in the presence of ANP; also called rNPR1 + ANP; rNPR1-ANP-complex
Kind of assay: ELISA, 1 uM IgG, +100 nM ANP.

Assay [5] deals with T4, human NPR1 expressed on CHO-K1 cells (human, UniProt P16066 33-1061).
T4 sequence: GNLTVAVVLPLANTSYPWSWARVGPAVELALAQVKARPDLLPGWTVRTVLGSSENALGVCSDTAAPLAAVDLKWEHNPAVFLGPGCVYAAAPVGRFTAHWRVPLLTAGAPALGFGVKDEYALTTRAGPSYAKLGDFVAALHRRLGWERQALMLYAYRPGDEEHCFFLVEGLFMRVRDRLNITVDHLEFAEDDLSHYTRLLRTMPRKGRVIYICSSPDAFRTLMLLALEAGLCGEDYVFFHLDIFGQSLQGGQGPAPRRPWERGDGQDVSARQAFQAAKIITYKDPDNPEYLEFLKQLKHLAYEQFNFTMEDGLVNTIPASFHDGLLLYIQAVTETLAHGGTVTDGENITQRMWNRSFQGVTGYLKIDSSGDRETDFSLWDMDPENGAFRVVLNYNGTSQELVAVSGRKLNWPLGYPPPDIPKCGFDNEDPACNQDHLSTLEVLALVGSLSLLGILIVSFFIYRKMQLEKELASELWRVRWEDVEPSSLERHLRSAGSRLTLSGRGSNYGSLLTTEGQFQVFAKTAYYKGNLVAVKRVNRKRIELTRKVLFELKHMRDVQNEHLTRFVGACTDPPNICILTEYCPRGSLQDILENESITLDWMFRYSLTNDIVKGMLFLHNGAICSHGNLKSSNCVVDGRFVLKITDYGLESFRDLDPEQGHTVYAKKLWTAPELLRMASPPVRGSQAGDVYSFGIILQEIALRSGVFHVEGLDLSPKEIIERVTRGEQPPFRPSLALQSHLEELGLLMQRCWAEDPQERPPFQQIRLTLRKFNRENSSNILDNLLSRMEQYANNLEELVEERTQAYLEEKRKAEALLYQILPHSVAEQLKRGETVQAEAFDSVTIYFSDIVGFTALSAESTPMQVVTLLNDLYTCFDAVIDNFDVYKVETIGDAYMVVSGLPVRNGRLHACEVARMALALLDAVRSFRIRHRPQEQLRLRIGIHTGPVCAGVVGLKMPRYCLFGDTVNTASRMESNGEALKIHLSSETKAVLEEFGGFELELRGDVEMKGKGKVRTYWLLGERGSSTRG
Put plainly: cell-based or functional assay.

For assay [6], the target named is T5, constitutively active human NPR1 mutant (W74R), recombinant antigen (human, UniProt P16066 33-473).
T5 construct: also called W74R hNPR1
T5 sequence: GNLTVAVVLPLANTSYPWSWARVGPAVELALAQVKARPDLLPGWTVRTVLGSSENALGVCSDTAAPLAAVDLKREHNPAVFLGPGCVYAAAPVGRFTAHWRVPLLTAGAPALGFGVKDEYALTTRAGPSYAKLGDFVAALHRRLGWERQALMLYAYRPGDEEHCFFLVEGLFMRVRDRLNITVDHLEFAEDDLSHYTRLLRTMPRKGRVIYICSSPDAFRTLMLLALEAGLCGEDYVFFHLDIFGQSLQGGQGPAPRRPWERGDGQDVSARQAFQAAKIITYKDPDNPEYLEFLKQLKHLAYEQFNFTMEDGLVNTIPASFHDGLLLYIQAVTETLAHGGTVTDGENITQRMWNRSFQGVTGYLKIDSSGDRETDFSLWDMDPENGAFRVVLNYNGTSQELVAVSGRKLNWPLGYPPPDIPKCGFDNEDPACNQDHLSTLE
Put plainly: ELISA, IgG titrated on the antigen without ANP [cont.].

The target in assay [7] is T6, rat NPR1, recombinant antigen (rat, UniProt P18910 29-469).
T6 construct: NCBI NP_036745.1 printed; also called rNPR1
T6 sequence: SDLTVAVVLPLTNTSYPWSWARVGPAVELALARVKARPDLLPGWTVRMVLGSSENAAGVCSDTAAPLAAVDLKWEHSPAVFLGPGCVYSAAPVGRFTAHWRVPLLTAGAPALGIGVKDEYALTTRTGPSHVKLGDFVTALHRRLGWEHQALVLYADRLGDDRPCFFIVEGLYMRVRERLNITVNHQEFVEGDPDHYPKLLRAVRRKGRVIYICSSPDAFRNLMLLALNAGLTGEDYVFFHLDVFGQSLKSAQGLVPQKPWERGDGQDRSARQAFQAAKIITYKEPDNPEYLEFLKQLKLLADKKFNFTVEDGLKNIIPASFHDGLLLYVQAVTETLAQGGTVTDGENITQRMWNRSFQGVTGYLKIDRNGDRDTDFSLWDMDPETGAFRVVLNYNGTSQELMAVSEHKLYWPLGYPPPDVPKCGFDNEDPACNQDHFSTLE
Kind of assay: ELISA, 1 uM IgG.

The target of assay [8] is T7, human NPR1 (Natriuretic Peptide Receptor 1), recombinant antigen (human, UniProt P16066 33-473).
T7 construct: also called hNPR1; NPR1-hFc
T7 sequence: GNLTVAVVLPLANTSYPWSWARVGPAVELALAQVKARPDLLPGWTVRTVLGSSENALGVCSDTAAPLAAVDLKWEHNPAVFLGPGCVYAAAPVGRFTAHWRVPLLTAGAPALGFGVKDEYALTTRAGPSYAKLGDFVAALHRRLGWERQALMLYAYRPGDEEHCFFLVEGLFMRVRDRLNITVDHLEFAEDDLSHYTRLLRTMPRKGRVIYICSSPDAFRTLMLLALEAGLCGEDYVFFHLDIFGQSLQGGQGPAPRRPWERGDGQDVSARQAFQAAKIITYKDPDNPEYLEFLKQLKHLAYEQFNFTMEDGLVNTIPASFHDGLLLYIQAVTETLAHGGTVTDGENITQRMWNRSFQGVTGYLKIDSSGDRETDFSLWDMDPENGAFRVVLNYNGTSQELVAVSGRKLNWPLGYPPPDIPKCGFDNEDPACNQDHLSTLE
Kind of assay: ELISA, 1 uM IgG.

For assay [9], the target named is T5, constitutively active human NPR1 mutant …. Kind of assay: ELISA, 1 uM IgG.
Assay [10] deals with T4, human NPR1 expressed on CHO-K1 cells. Kind of assay: flow cytometry, 1 uM IgG.
Assay [11] deals with T3, rat NPR1-ANP complex. Put plainly: ELISA, IgG titrated on the antigen with 250 fold molar excess of ANP [cont.].

B1: XX08 (antibody, human IgG1, kappa, L234A L235A, V domains shown)
VH: EVQLLESGGGLVQPGGSLRLSCAASGFTFNTHYIHWVRQAPGKGLEWVSSIGGQGGMTLYADSVKGRFTISRDNSKNTLYLQMNSLRAEDTAVYYCARERGYVYYHMFDPWGQGTLVTVSS
VL: DIVLTQSPATLSLSPGERATLSCRASQSITRNYLAWYQQKPGQAPRLLIYGASSRATGIPARFSGSGSGTDFTLTISSLEPEDFAVYYCQQHSMYPRTFGQGTKVEIKR
notes: the panel axis reads IgG conc; [nM]; the list MOLECULES holds only the FabCys format; also called XX08 IgG; XX08_LALA
The EC50 (read off the curve) is the midpoint of the concentration-response curve. As for B1, the half-maximal effective concentration (EC50 (read off the curve)) in the assay with human NPR1-ANP complex [1] is about 0.5 nM.

B2: YY05 IgG (YY05_LALA) (antibody, V domains shown)
VH: EVQLVQSGAEVKKPGESLKISCKGSGYSFTSYWISWVRQMPGKGLEWMGIIYPGTSYTRYSPSFQGQVTISADKSISTAYLQWSSLKASDTAMYYCARGAVAGQLGFDHWGQGTLVTVSS
VL: QSVLTQPPSVSGAPGQRVTISCTGSSSNIGAGYDVHWYQQLPGTAPKLLIYGNSNRPSGVPDRFSGSKSGTSASLAITGLQAEDEADYYCQSYYTSSHGPVFGGGTKLTVLG
On to B2, for which the “flow cytometry S/BG” value in assay [2] was found to be 5 S/BG; in [10] it was 15 S/BG. Also, the “ELISA IgG binding at 1 uM IgG (unit not given)” value with human NPR1-ANP complex [3] was determined as 32; with rat NPR1-ANP complex [4], 16; in assay [7] it was 11; in [8], 81; in assay [9], 69. The “cGMP conc [nM] at 1 uM IgG, +0.075 nM ANP” value in [5] came out at 15 nM. Also, in assay [5], the “cGMP conc [nM] at 1 uM IgG, without ANP” value was 13 nM. The 50% effective concentration (EC50 (read off the curve)) in assay [6] is about 1 nM.

B3: XX07 IgG (antibody, V domains shown)
VH: QVQLLESGGGLVQPGGSLRLSCAASGFTFSSYWMNWVRQAPGKGLEWVSAISSDGSYTYYADSVKGRFTISRDNSKNTLYLQMNSLRAEDTAVYYCARDRYSMIYSYGAGAFDYWGQGTLVTVSS
VL: DIQMTQSPSSLSASVGDRVTITCRASQGISSYLAWYQQKPGKAPKLLIYTASTLQSGVPSRFSGSGSGTDFTLTISSLQPEDFATYYCQQIWTVPRTFGQGTKVEIKR
notes: also called XX07_LALA
Turning to B3, the half-maximal effective concentration (EC50 (read off the curve)) in the assay with rat NPR1-ANP complex [11] was about 0.2 nM.
